According to patent publication US20100260765A1 (AstraZeneca / MedImmune, published 2010):
Residue numbers refer to the chain shown, from its start.

B1: 21H9 (antibody, V domains shown)
VH: QVPLVESGGGVVQPGRSLRLSCAASGFTFSSYGMHWVRQAPGKGLEWVAVIWYDGSNKYYADSVQGRFTISRDNSKNTLYLQMNSLRAEDTAVYYCARGVTMVRGLIIARYYYGLDVWGQGTTVTVSS
VL: DIVMTQTPLSSPVTFGQPASISCRSSQSLVHSDGNTYLSWLQQRPGQPPRLLIYKISNRFFGVPDRFSGSGAGTDFTLKISRVEAEDVGLYYCMQSTQFPLTFGGGTKVEIK
notes: Fully human mAb from XenoMouse hybridoma, tested as hybridoma supernatant
B2: 30D7 (antibody, V domains shown)
VH: B1 VH with Q65K, L106V
VL: B1 VL with F15L, S81G
notes: as for B1
B3: 24B3 (antibody, V domains shown)
VH: EVQLVESGGGLVKPGGSLRLSCAASGFTFSTYSMNWVRQAPGKGLEWVSFISGRSSYIYYADSVKGRFTISRDNAKNSLYLQMNSLRAEDTAVYYCSKDDWFEELWGQGTLVTVSS
VL: DIQMTQSPSSLSASVGDRVTITCRASQGIRSDLGWYQQKPGKAPKRLIYATSSLQSGVPSRFSGSGSGTEFTLTISSLQPEDFATYYCLQHNRYPWTFGQGTKVEIK
notes: as for B1
B4: 24C9 (antibody, V domains shown)
VH: B3 VH
VL: B3 VL with S31N, S52F
notes: as for B1
B5: 21A1 (antibody, V domains shown)
VH: QVQLVESGGGLVKPGGSLRLSCAASGFTFSDYYMSWIRQAPGKGLEWVSYISNSGITIYYADSVKGRFTISRDNAKNSLYLQMNSLRAGDTAVYYCAREEWYSSRWYRNFDYWGQGTLVTVSS
VL: DIQMTQFSSSLSASVGDRVTITCRASQSISRYLNWYQQKPGKAPKLLIYAASSLQSGVPSRFNGSGSGTDFTLTISSLQPEDFATYYCQQSYSAPLTFGGGTKVEIK
notes: as for B1
B6: 21H6 (antibody, V domains shown)
VH: B5 VH
VL: B5 VL
notes: as for B1
B7: 1G6 (antibody, V domains shown)
VH: EVQLLESGGGLVQPGGSLRLSCAASGFTFSSYAMSWVRQAPGKGLEWVSAISGGGGNTYYADSVKGRFTISRDNSKNTLYLQMNSLRAEDTAVYYCSKVATDYWGQGTLVTVSS
VL: QPVLTQSSSASASLGSSVKLTCTLSSGHSSYIIAWHQQQPGKAPRYLMKLEGSGSYNKGSGVPDRFSGSSSGADRYLTISNLQFEDEADYYCETWDSYTVVFGGGTKLTVL
notes: as for B1
B8: 22B8 (antibody, V domains shown)
VH: QLQLQESGPGLVKPSETLSLTCTVSGGSISSRYYYWGWVRQPPGKGLEWIGTIYYSGHTYYNPSLKTRVTISVDTSKNQFSLKLISVTAADTAVYYCATQQLVLYYFDFWGQGTLVTVSS
VL: EIVLTQSPGTLSLSPGERAALSCRASQSISSSYLAWYQQRPGQAPRLLIYGASSRATGIPDRFNGSGSGTDFTLTISRLEPEDFAVYYCQQFGSSITFGQGTRLEIK
notes: as for B1
B9: 30A1 (antibody, V domains shown)
VH: B8 VH with R32P, Y33N, V39I, H58N, Y60F, T67S, I85S
VL: B8 VL with E17K, R40K, F92L
notes: as for B1

biological target: KDR endogenously expressed on human umbilical vein endothelial cells (HUVEC) (human, UniProt P35968 20-1356); test: cell-based or functional assay
Sequence (P35968 20-1356): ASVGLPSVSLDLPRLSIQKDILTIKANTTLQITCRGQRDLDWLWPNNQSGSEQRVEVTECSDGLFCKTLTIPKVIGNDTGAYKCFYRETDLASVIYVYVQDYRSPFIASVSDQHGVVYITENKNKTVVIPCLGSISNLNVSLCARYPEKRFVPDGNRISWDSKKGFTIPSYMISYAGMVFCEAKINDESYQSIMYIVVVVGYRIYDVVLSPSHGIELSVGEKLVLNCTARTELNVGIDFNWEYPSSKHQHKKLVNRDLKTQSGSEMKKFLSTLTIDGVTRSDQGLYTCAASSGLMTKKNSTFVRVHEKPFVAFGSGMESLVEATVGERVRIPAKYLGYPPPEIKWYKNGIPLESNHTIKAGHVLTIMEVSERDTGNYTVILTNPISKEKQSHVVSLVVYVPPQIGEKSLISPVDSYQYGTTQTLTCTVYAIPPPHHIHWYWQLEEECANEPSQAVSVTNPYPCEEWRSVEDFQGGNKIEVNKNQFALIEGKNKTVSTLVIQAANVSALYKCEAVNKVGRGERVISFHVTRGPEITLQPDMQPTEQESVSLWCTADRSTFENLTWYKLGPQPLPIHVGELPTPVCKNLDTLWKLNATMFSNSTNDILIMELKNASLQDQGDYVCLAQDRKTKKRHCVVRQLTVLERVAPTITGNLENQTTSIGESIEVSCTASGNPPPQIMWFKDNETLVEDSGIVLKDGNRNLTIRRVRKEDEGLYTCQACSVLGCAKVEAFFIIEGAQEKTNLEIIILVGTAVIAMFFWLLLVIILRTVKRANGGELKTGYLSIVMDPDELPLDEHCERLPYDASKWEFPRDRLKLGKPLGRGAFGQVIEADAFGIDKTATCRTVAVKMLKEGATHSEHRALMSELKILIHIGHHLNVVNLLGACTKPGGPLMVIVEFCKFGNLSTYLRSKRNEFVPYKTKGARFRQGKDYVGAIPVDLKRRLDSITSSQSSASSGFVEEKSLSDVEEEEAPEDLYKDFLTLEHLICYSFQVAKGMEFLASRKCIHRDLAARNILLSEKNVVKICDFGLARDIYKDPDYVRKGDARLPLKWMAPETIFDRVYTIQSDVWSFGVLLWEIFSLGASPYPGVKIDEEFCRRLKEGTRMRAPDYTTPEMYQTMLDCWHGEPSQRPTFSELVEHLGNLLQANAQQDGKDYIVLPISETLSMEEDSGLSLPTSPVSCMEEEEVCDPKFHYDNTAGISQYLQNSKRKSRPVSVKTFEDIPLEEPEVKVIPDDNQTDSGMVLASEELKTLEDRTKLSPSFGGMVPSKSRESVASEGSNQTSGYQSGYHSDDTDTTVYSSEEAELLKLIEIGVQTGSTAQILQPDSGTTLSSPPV

Binder	VEGF-E-mediated Survival % Inhibition (Average)	VEGF-E-mediated Survival % Inhibition (n = 1)	VEGF-E-mediated Survival % Inhibition (n = 2)
B1	-1%	-3%	1%
B2	-24%	-27%	-22%
B3	66%	65%	66%
B4	72%	72%	72%
B5	42%	45%	40%
B6	55%	56%	53%
B7	2%	-2%	6%
B8	55%	57%	53%
B9	58%	58%	59%

biological target: T1, soluble KDR extracellular domain (ECD) (Calbiochem) (human, UniProt P35968 20-764); test: High Antigen ELISA, KDR coat 500 ng/mL, supernatant 1:25
T1 construct: extracellular domain; Bought protein; also called KDR-ECD; VEGF Receptor 2 D1-7, Cat. #676490
T1 sequence (P35968 20-764): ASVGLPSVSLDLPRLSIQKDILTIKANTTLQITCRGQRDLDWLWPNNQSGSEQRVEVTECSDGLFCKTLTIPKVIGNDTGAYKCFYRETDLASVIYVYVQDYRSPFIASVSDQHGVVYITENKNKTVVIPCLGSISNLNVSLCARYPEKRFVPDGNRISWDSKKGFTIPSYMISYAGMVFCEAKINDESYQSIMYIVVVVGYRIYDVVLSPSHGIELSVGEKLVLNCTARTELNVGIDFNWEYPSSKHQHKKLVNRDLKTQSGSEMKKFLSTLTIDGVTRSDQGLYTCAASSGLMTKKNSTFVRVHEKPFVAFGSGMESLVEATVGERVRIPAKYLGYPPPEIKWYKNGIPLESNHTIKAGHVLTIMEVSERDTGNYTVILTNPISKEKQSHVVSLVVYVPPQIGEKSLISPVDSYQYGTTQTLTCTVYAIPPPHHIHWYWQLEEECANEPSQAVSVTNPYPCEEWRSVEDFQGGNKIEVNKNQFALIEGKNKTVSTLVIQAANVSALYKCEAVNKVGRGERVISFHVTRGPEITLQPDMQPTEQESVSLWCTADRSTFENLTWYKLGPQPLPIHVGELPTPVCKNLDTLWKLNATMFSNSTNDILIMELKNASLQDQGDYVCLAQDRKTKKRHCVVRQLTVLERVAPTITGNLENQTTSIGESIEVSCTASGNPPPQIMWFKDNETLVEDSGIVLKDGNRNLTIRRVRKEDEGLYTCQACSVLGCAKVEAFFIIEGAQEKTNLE
Method: (§1) ELISA plates were coated with a greater amount of KDR (at 500 ng/mL) in comparison with the Limited Antigen Quantitation assay described below. Sample containing antibody (Ab) was titrated on the KDR-coated ELISA plates and was incubated overnight at 4° C. to allow Ab binding to approach equilibrium. Titration of Ab in sample covered a dilution range of 1:25 to 1:18,225. A standard curve of KDR-specific antibody of known concentration was used to define the linear range of the assay. Data within the linear range were used to derive the relative concentration of KDR-specific Ab in each titrated sample. The high KDR concentration and the overnight incubation limited the effect of Ab affinity, allowing quantitation of the relative amount of KDR-specific Ab present in each sample.

Binder	ELISA reading
B1	6
B2	4.66
B3	2.33
B4	3.67
B5	4.45
B6	6
B7	6
B8	6
B9	4.52

biological target: T1, soluble KDR extracellular domain (ECD) …; test: High Antigen ELISA, KDR coat 500 ng/mL, supernatant 1:75
Method: as §1

Binder	ELISA reading
B1	4.34
B2	5.09
B3	1.58
B4	2.48
B5	4.43
B6	4.19
B7	6
B8	6
B9	4.78

biological target: T1, soluble KDR extracellular domain (ECD) …; test: High Antigen ELISA, KDR coat 500 ng/mL, supernatant 1:225
Method: as §1

Binder	ELISA reading
B1	3.41
B2	6
B3	1.16
B4	2.14
B5	4.14
B6	5.57
B7	4.49
B8	6
B9	6

biological target: T1, soluble KDR extracellular domain (ECD) …; test: High Antigen ELISA, KDR coat 500 ng/mL, supernatant 1:675
Method: as §1

Binder	ELISA reading
B1	1.56
B2	4.24
B3	0.79
B4	1.45
B5	3.36
B6	4.02
B7	2.24
B8	3.49
B9	4.28

biological target: T1, soluble KDR extracellular domain (ECD) …; test: High Antigen ELISA, KDR coat 500 ng/mL, supernatant 1:2025
Method: as §1

Binder	ELISA reading
B1	0.7
B2	2.79
B3	0.31
B4	0.54
B5	1.66
B6	2.91
B7	0.69
B8	1.27
B9	3.37

biological target: T1, soluble KDR extracellular domain (ECD) …; test: High Antigen ELISA, KDR coat 500 ng/mL, supernatant 1:6075
Method: as §1

Binder	ELISA reading
B1	0.26
B2	1.02
B3	0.13
B4	0.2
B5	0.56
B6	1.17
B7	0.34
B8	0.31
B9	1.58

biological target: T1, soluble KDR extracellular domain (ECD) …; test: Limited Antigen ELISA, KDR coat 25 ng/mL, supernatant 1:25
Method: (§2) Samples containing one concentration of antibody (Ab) (1:25 dilution) were incubated overnight to allow Ab binding to approach equilibrium. The low antigen concentration limited the effect of antibody concentration, allowing ranking of the antibodies based on their relative affinity.

Binder	ELISA reading
B1	1.46
B2	1.51
B3	0.21
B4	0.23
B5	1.47
B6	0.97
B7	0.65
B8	1.84
B9	0.87

biological target: T1, soluble KDR extracellular domain (ECD) …; test: Limited Antigen ELISA, KDR coat 50 ng/mL, supernatant 1:25
Method: as §2

Binder	ELISA reading
B1	2.28
B2	2.93
B3	0.38
B4	0.5
B5	2.65
B6	1.83
B7	1.38
B8	3.36
B9	1.77

biological target: T1, soluble KDR extracellular domain (ECD) …; test: High Antigen ELISA, KDR coat 500 ng/mL, supernatant 1:18,225
Method: as §1

Binder	ELISA reading
B1	0.12
B2	0.82
B3	0.08
B4	0.11
B5	0.25
B6	0.54
B7	0.26
B8	0.2
B9	1.11

biological target: T1, soluble KDR extracellular domain (ECD) …; test: Limited Antigen ELISA, KDR coat 12.5 ng/mL, supernatant 1:25
Method: as §2

Binder	ELISA reading
B1	0.82
B2	0.79
B3	0.12
B4	0.13
B5	0.81
B6	0.52
B7	0.32
B8	0.91
B9	0.5

biological target: T1, soluble KDR extracellular domain (ECD) …; test: Limited Antigen ELISA, KDR coat 6.25 ng/mL, supernatant 1:25
Method: as §2

Binder	ELISA reading
B1	0.39
B2	0.48
B3	0.08
B4	0.09
B5	0.38
B6	0.23
B7	0.2
B8	0.42
B9	0.27

biological target: T1, soluble KDR extracellular domain (ECD) …; test: Limited Antigen ELISA, KDR coat 3.125 ng/mL, supernatant 1:25
Method: as §2

Binder	ELISA reading
B1	0.22
B2	0.27
B3	0.07
B4	0.07
B5	0.23
B6	0.15
B7	0.12
B8	0.21
B9	0.15
